Reference: paper PMC7954794, “Protein context shapes the specificity of SH3 domain-mediated interactions in vivo” (Nature Communications, 2021)

How the values were obtained:
Assay type in all cases: cell-based, Saccharomyces cerevisiae
BUD14 = assay: DHFR-PCA on solid medium, bait BUD14 (Fig. 1B); conditions: bait BUD14, label = prey; for medrep (log2 median colony size normalized to plate background, PCA score): 4 replicates
From the text: (§1) Supplement 41467_2021_21873_MOESM8_ESM.xlsx, sheet "Fig1B" | column: medsize; medrep; Ratio; Score

BOI2 = assay: DHFR-PCA on solid medium, bait BOI2 (Fig. 1B); conditions: bait BOI2, label = prey; 3-8 replicates
From the text: as §1

BBC1 = assay: DHFR-PCA on solid medium, bait BBC1 (Fig. 1B); conditions: bait BBC1, label = prey
From the text: as §1

BOI1 = assay: DHFR-PCA on solid medium, bait BOI1 (Fig. 1B); conditions: bait BOI1, label = prey
From the text: as §1

ABP1 = assay: DHFR-PCA on solid medium, bait ABP1 (Fig. 1B); conditions: bait ABP1, label = prey; for medrep (log2 median colony size normalized to plate background, PCA score): 2-4 replicates
From the text: as §1

BEM1-2 = assay: DHFR-PCA on solid medium, bait BEM1-2 (Fig. 1B); conditions: bait BEM1-2, label = prey; for medrep (log2 median colony size normalized to plate background, PCA score): 2-8 replicates; for Ratio (SH3-deleted/WT medrep): only significant differences showed, PPIs completely lost have a ratio of 0.1 and the gained PPIs 2.5
From the text: as §1

BEM1-1 = assay: DHFR-PCA on solid medium, bait BEM1-1 (Fig. 1B); conditions: bait BEM1-1, label = prey; for medrep (log2 median colony size normalized to plate background, PCA score): 2-8 replicates
From the text: as §1

[1] = system: 575 putative partners (preys) of 22 WT SH3-containing proteins; assay: DHFR-PCA on solid medium, WT and SH3-deleted baits (Fig. 1B); design: key to Score: 0: SH3-independent; 1: SH3-dependent PPIs; 2: SH3-inhibited PPIs; conditions: for medrep (log2 median colony size normalized to plate background, PCA score): label = prey
Outline: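 Interactions scored by DHFR protein-fragment complementation on solid medium using robotic pinning; preys (DHFR F[3] fusions) arrayed in duplicate with control borders. Baits carried C-terminal DHFR F[1,2]-FLAG tags, tested as wild type and as SH3-deleted versions carrying a flexible Gly/Ser stuffer.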

[2] = only significant differences showed, PPIs completely lost have a ratio of 0.1 and the gained PPIs 2.5

B1: YER149C (protein, UniProt P40091 1-420, looked up)
Protein PEA2: MHKFDLELSRRANPLLFSAERYEEYPLKYDELKQYLLSQNPSHPHHNSRPYTSIDYFDYLLYRSKNDESEIDLDKKLVSEFALYYVQKEHLNSDDLNPTLNELLKLQPKSADWYEMMLRILESINTTGIDQLTKENNNSFPNSKRARSSTNMGGTDKFNKGAYHTDKADDDKNEILQELTSFLMSNSIQKGIDIKPIPLDDPVKFLKNGINSILDTCVSLEKNTSSPPISPNAAAIQEEDSSKKLEELETAFSDLQLAHNFLTKQFENDRAEYVQDIEKLTRTNRELQDKLLNNHSNLSKTEKKLHELEQENKELEKANNKLNSSRHNFGMSSPASSPVTWDPSSPSSVGSPTSGSGSRSLSIMTSEFKKVLTSTQRKYEKELSDEREHRFKLERELALLKNAEANTSLALNRDDPPDML
medrep (log2 median colony size normalized to plate background, PCA score) (BUD14): 1.879
Ratio (SH3-deleted/WT medrep) (BUD14; [2]): 0.1

B2: YGR238C (protein, UniProt P50090 1-882, looked up)
Kelch repeat-containing …: MVPFKLTNKVPTDTGPSLISAQSVPRPIVFMDNRNNTRIVTPTLPPNQHRGISGASTALPWSPESKNTGKYIWNRVKLKNSPFPRYRHSSSFIVTNDNRIFVTGGLHDQSVYGDVWQIAANADGTSFTSKRIDIDQNTPPPRVGHASTICGNAYVVFGGDTHKLNKNGLLDDDLYLFNINSYKWTIPQPIGRRPLGRYGHKISIIASNPMQTKLYLFGGQVDETYFNDLVVFDLSSFRRPNSHWEFLEPVGDLPPPLTNHTMVAYDNKLWVFGGETPKTISNDTYRYDPAQSEWSKVKTTGEKPPPIQEHASVVYKHLMCVLGGKDTHNAYSNDVYFLNLLSLKWYKLPRMKEGIPQERSGHSLTLMKNEKLLIMGGDKTDYASPNIHDLQTSETDQGEGTLLYTLDLSSLNELCPGIMCESLHAGESFSNSLSGGFTPSKSTESENQEIINILTPRLPDSKVLSYNDIDEGAGSYSSALDDKAFERKSDREEKKPQSSKVDSSINKESPGTGIKVSKKNFPVLRGLTVDSEEYGSSSYKDTSCQKGIPKNLFDDLNLNLQTLRLEAQQKELETARHISQLEKEVQRLMVIKEASKDSNFQTARLKNLEIQKTFLESRINDLKNLLMVKLSQASKLCDQITIQNNGLKTCSEHVTIKRDIIDLENKCDVLKRQNEILVNNMQKITPELHTYLNESSCYLGKLLKSYPTSARPPSSEKDNQIYEKDSLNKIEKVINEMHETVRAKEKLHLETQKLNDERDSLRANLLDNNNKLDALRKLSDGSSKSMDLTKKAIHLSQSELEKYRKNNDDLQKEIDRIKTEQAEQDDKQEQRGAITHGNFDAFHRMKINNLKAELYMSKENRDSLKDELLALKKKLYTLEQKK
medrep (log2 median colony size normalized to plate background, PCA score) (BUD14): 3.527

B3: YHR158C (protein, UniProt P38853 1-1164, looked up)
Kelch repeat-containing …: MAGFSFAKKFTHKKHGKTPSDASISDQSREASLSTPPNEKFFTKQETPQKGRQFSQGYHSNVNKTSSPPMFARKQVSESRIQPSAVPPQQRNVSGPSTTLHKQLSKQREYTVWNRIKLQNSPFPRYRHVASAYVTDKNQIYVIGGLHDQSVYGDTWILTAFDNATRFSTTTIDISEATPPPRVGHAAVLCGNAFVVFGGDTHKVNKEGLMDDDIYLLNINSYKWTVPAPVGPRPLGRYGHKISIIATTQMKTKLYVFGGQFDDTYFNDLAVYDLSSFRRPDSHWEFLKPRTFTPPPITNFTMISYDSKLWVFGGDTLQGLVNDVFMYDPAINDWFIIDTTGEKPPPVQEHATVVYNDLMCVVGGKDEHDAYLNSVYFLNLKSRKWFKLPVFTAGIPQGRSGHSLTLLKNDKILIMGGDKFDYARVEEYDLHTSDIDMQRGTIVYTLDLARIKDLCPGVMDVPTDTPTPRNGNLDLATPVTPTSHQTKNMNVPISAAPLASAPSPAPKDFSDADRLNREVHNRNVSTEHQNQSHPVNSESHLIAEPNILTPYVPSESSQTPVMKITSNKPFDTPTIQKEPDLSETMDPTVGNQRIPSSIYGDNLTPANQIKNNSPILETLPSNEIKTPQNGNIEEIKHLPDADEKIDSTTTFDQEINGDKLGTSSMSKVEEDGNVADEDDEIGVAQMASSPSKDQFKIKHYNESSELSQNNTEIDKLSEPVDITIKKSDTAGHDSANHVIDASDEKNVSPMGDVPTDTKNEEASVPINRDATTEVVDRALFEKLRSELQSLKELTHEKALEAGAHIKELETELWQLKSQKNSGTTKEIDELDSVRLQSKCEILEADNHSLEDKVNELEELVNSKFLDIENLNEVIQFQNEKIKSLELEPNYKEKLEELQIEHENLSRENERLKNESKQHNEDIINNVANYSSQLGSLISHWKENRANSSFLESSSSLISVSDENGEKTVGEPYGDQSRHHRVVINKLTNRLDDLLERSQELTISKEKLSSEYHALKMEHSSLSQDVLVKENEIKKIQNDYKESISSMDSASKALMVSQRELEKYKSLNKKLIDELDELKFKNGVCSENFENGLRSTEESSNNVKNSNSIRENQFNIKINDLKAELFITNQERDDLKSEVLELKKRLLNLENNTKQVNEDADSDLL
medrep (log2 median colony size normalized to plate background, PCA score) (BUD14): 3.841

B4: YML016C (protein, UniProt P26570 2-692, looked up)
Serine/threonine-protein …: GNSSSKSSKKDSHSNSSSRNPRPQVSRTETSHSVKSAKSNKSSRSRRSLPSSSTTNTNSNVPDPSTPSKPNLEVNHQRHSSHTNRYHFPSSSHSHSNSQNELLTTPSSSSTKRPSTSRRSSYNTKAAADLPPSMIQMEPKSPILKTNNSSTHVSKHKSSYSSTYYENALTDDDNDDKDNDISHTKRFSRSSNSRPSSIRSGSVSRRKSDVTHEEPNNGSYSSNNQENYLVQALTRSNSHASSLHSRKSSFGSDGNTAYSTPLNSPGLSKLTDHSGEYFTSNSTSSLNHHSSRDIYPSKHISNDDDIENSSQLSNIHASMENVNDKNNNITDSKKDPNEEFNDIMQSSGNKNAPKKFKKPIDIDETIQKLLDAGYAAKRTKNVCLKNNEILQICIKAREIFLSQPSLLELSPPVKIVGDVHGQYGDLLRLFTKCGFPPSSNYLFLGDYVDRGKQSLETILLLFCYKIKYPENFFLLRGNHECANVTRVYGFYDECKRRCNIKIWKTFIDTFNTLPLAAIVAGKIFCVHGGLSPVLNSMDEIRHVVRPTDVPDFGLINDLLWSDPTDSPNEWEDNERGVSYCYNKVAINKFLNKFGFDLVCRAHMVVEDGYEFFNDRSLVTVFSAPNYCGEFDNWGAVMSVSEGLLCSFELLDPLDSAALKQVMKKGRQERKLANQQQQMMETSITNDNESQQ
medrep (log2 median colony size normalized to plate background, PCA score) (BOI2): 2.013
medrep (log2 median colony size normalized to plate background, PCA score) (BBC1; 2-4 replicates): 1.933
Ratio (SH3-deleted/WT medrep) (BBC1; [2]): 0.1
medrep (log2 median colony size normalized to plate background, PCA score) (BOI1; 3-8 replicates): 1.566
Ratio (SH3-deleted/WT medrep) (BOI1; [2]): 2.5
medrep (log2 median colony size normalized to plate background, PCA score) (ABP1): 2.329
Ratio (SH3-deleted/WT medrep) (ABP1; [2]): 1.5236
medrep (log2 median colony size normalized to plate background, PCA score) (BEM1-2): 2.424
Ratio (SH3-deleted/WT medrep) (BEM1-2): 0.1
medrep (log2 median colony size normalized to plate background, PCA score) (BEM1-1): 2.424

B5: YCR030C (protein, UniProt P25623 1-870, looked up)
Suppressor of yeast profilin …: MTEQRTKYADSILTTKSPYEATETIRIRLSQVKLLNKDFYLLFKELANLKRNYAQQLRKIIAENEDITKILNAQMIESNVLTPQEMSAFRFNSLGELRNVWDTVIEELKSDLKSSTEYYNTLDQQVVRELKESVENNTSWRESKDLHSKLSKNAASIEHYSKNNENSSHLEEARRQWDQQSPYLFELFETIDYNRLDTLKNCMLRFQTSFSDYLLNTTKECETVMTKFLAFEPQSEIDRFAKDASQYNFQLSSSSKEVVPNNASPASATGARPVSVSNGAANTEREKKSPQKDKRKSAFGNIGHRLASASSSLTHNDLMNNEFSDSTNNSSLKSKKSSHTLRSKVGSIFGRNKTKNKRQQQSSSNSHIQASITETPNNSSTRVSSTATSSIYQKQRRPTYSSSKSNNWTPGEASDTPPLPPHATPKNVDAPVTADTPPAQTFTPSEVPPSTPQQSSPPTAKEPDSSNLPKTVPISISQPPLQPQSKTKPLPVEPASPSISLPTATVDNQPSGQVDSRPLHIRAPALPPSRKQNFIHNRDSQLYDSLPNHGSGATPTSSSLSSIPQERPVSTLSSQITGELRELNPQATGSSTSLVGQSLFQHSSLDTSQFGLNASIAEVLNASFKDGMLQNSQLIGEIALNYLPNSVMNSPLPIGINLRINNGAKFEKVILNQAFIERVAPEEFKVNPSFIDSRTLGAIKYSIKEPIAPIVIHPVWRFESHQASVVLTVKMSPSLPDEISQIVIEDLVVFVNIDGANATSALSKPQGSFSKEKKRITWRFKEPVVLTRNGEGQRLIARFITDGLAHESAKGVITKFTISETDNVALPHSGAGSGITLTCQELDENNPFGGEWLDVNTKRTLTTGNYHGLA
medrep (log2 median colony size normalized to plate background, PCA score) ([1]; bait SLA1-2, DHFR-PCA, Replicates 4 (2 for YCR009C, YDR388W)): 3.1776
Score ([1]; bait SLA1-2, label = prey): 1
Ratio (SH3-deleted/WT medrep) ([1]; bait SLA1-2, label = prey, only significant differences shown, PPIs completely lost have a ratio of 0.1, gained PPIs 2.5): 0.1
medrep (log2 median colony size normalized to plate background, PCA score) ([1]; bait SLA1-3, DHFR-PCA, Replicates 4 (2 for YCR009C, YDR388W, YIL033C)): 3.1776
Score ([1]; bait SLA1-3, label = prey): 0
medrep (log2 median colony size normalized to plate background, PCA score) (BUD14): 2.234
medrep (log2 median colony size normalized to plate background, PCA score) (ABP1): 2.201
medrep (log2 median colony size normalized to plate background, PCA score) (BEM1-2): 2.035
Ratio (SH3-deleted/WT medrep) (BEM1-2): 0.1
medrep (log2 median colony size normalized to plate background, PCA score) (BEM1-1): 2.035
Ratio (SH3-deleted/WT medrep) (BEM1-1; [2]): 0.1
